The data set in a line: protein stability index of a GFP-peptide fusion (GPS, HEK-293T) (PSI 1-6); higher = more stable. As to conditions: c terminus: a fixed tail appended.

± gives the standard deviation.
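Note: 24-mer peptide tiles fused after GFP, lentivirally expressed, FACS-sorted into six equal bins by GFP/DsRed ratio, decoded by Illumina sequencing, PSI is the read-weighted mean bin number.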

In the case of AWGPGTLAAAPEGLEDAGLDPHFV [TEX19], the protein stability index turned out to be 4.31 ± 0.25 (treatment: DMSO) and 4.37 ± 0.26 (treatment: MLN4924 1 uM, 8 h).
With LHMSQRERTWPPPAMSPYWRTWMT [C22orf15], the protein stability index is, setting by setting: (treatment: DMSO) 2.31 ± 0.24; (treatment: MLN4924 1 uM, 8 h) 2.56 ± 0.37.
For KEKLQKCLEPLEQKLQEITRCKSS [TRIM39], in that order: 4.38 ± 0.22 and 4.44 ± 0.4.
For AIEGIPGSDYVNANYIDGYRKQNA [PTPRD], in that order: 4.09 ± 0.24 and 4.6 ± 0.12.
For ADNKIVSHLLVAEPEKIYAMPDPT [ESRRG], in that order: 4.23 ± 0.17 and 4.22 ± 0.27.
Regarding SAGSPPELQGLPELHEECEGNHPS [NET1], the protein stability index (treatment: DMSO) came out at 5.46 ± 0.17 and the protein stability index (treatment: MLN4924 1 uM, 8 h) was 5.56 ± 0.16.
As for PGGITSHQLLGLFPSTSYNARLQA [TNXB], the protein stability index reads like this: (treatment: DMSO) 2.98 ± 0.084; (treatment: MLN4924 1 uM, 8 h) 3.02 ± 0.085.
For GTVFQELNKLYPTHACREYLKNLP [TPH1], in that order: 2.46 ± 0.34 and 2.38 ± 0.26.
For AGSSLPTSSKVNATVPSNMMSVNG [ACBD3], in that order: 4.13 ± 0.19 and 4.16 ± 0.14.
In the case of PGEWLELLLEPGSLYILRGSARYD [ALKBH7], the protein stability index turned out to be 3.2 ± 0.38 (treatment: DMSO) and 3.08 ± 0.51 (treatment: MLN4924 1 uM, 8 h).
For the sequence SQEAGLPAGAGPSPTFPALGIGMD [SEPHS2], the protein stability index came to 4.64 ± 0.22 (treatment: DMSO) and 4.65 ± 0.25 (treatment: MLN4924 1 uM, 8 h).
With GKLLLRLPSLRTVSSSVIEQLFFV [NR2F2], the protein stability index (treatment: DMSO) was determined as 2.81 ± 0.6 and the protein stability index (treatment: MLN4924 1 uM, 8 h) turned out to be 2.83 ± 0.34.
With VTPRTALLTWTEPPVRPAGYLLSF [TNXB], the protein stability index reads like this: (treatment: DMSO) 2.42 ± 0.29; (treatment: MLN4924 1 uM, 8 h) 2.2 ± 0.26.
In the case of GSELKDSIPVTELSASGPFESHDL [POMP], the protein stability index by setting is: (treatment: DMSO) 5.28 ± 0.34; (treatment: MLN4924 1 uM, 8 h) 5.18 ± 0.57.
For HFERRDNMNDNFLEGEEENELTLN [CHGB], in that order: 5.53 ± 0.06 and 5.61 ± 0.21.
For the sequence SGTMGAAKVTGEVLDILTRLPESV [FLOT1], the protein stability index reads like this: (treatment: DMSO) 3.64 ± 0.38; (treatment: MLN4924 1 uM, 8 h) 3.71 ± 0.24.
For LEIPVETITSEVIEKCTTPLSDDH [CRY1], in that order: 4.8 ± 0.23 and 5.02 ± 0.3.
For REENEKLRLENSSLFSQALKDEEA [CCDC89], in that order: 5.41 ± 0.46 and 5.41 ± 0.37.
As to VLDFDFEKLCSISLSHINAYACLV [USP39], the protein stability index runs as follows: (treatment: DMSO) 2.83 ± 0.59; (treatment: MLN4924 1 uM, 8 h) 2.56 ± 0.53.
In the case of FFGVFQSFVVLLYILDNETNFVVQ [CLPTM1], the protein stability index runs as follows: (treatment: DMSO) 3.19 ± 0.33; (treatment: MLN4924 1 uM, 8 h) 2.86 ± 0.42.
For CISDELLENLCENASTLRTINIKC [FBXO39], in that order: 2.47 ± 0.2 and 2.69 ± 0.28.
Regarding KYELMRPSNKAPLLVLCEDHRGRM [EHMT1], the protein stability index (treatment: DMSO) came to 2.57 ± 0.28 and the protein stability index (treatment: MLN4924 1 uM, 8 h) stood at 2.78 ± 0.26.
For LRITSGVVVCQCGLSIPSHSSELT [RPAIN], in that order: 2.56 ± 0.65 and 2.48 ± 0.57.
In the case of MATTVTCTRFTDEYQLYEDIGKGA [CAMK2B], the protein stability index (treatment: DMSO) was 3.25 ± 0.2 and the protein stability index (treatment: MLN4924 1 uM, 8 h) was determined as 3.31 ± 0.18.
Take SLRLWDTFGDHHKDRRFAYGRSDV [RHOBTB1]: the protein stability index reads like this: (treatment: DMSO) 2.87 ± 0.38; (treatment: MLN4924 1 uM, 8 h) 2.92 ± 0.24.
Consider IREKSRLFDTKHDVYSFAIVIWGV [RIPK4], for which the protein stability index by setting is: (treatment: DMSO) 3.27 ± 0.68; (treatment: MLN4924 1 uM, 8 h) 2.9 ± 0.83.
For the sequence AFHDGQRSRLRPRDDLDRLGVFLD [TRIM14], the protein stability index reads like this: (treatment: DMSO) 3.35 ± 0.26; (treatment: MLN4924 1 uM, 8 h) 3.66 ± 0.31.
For DPFVCRLRHLSPTPSEEHMKNKNN [OR4A15], in that order: 4.73 ± 0.11 and 4.66 ± 0.1.
For VPVDTGVAARTPAVEGLTEAEEEE [TPD52L2], in that order: 5.51 ± 0.15 and 5.4 ± 0.13.
Take ALPDSVLRRFVVRTMCAVLGLVAR [AUP1]: the protein stability index (treatment: DMSO) came out at 2.51 ± 0.21 and the protein stability index (treatment: MLN4924 1 uM, 8 h) is 2.32 ± 0.44.
For APVLVAAPHSTFFDPIVLLPCDLP [LPCAT4], in that order: 2.25 ± 0.27 and 2.47 ± 0.32.
For ILVNLQGTVVFLLSLFIPESPRWL [SLC22A15], in that order: 3.12 ± 0.14 and 3.23 ± 0.48.
Consider GVSANASKAWHQKSHFQNSREWSG [PBXIP1], for which the protein stability index (treatment: DMSO) was 3.22 ± 0.33 and the protein stability index (treatment: MLN4924 1 uM, 8 h) amounted to 3.23 ± 0.3.
On to EKASWLGEQPQFWSKTQVLDWISY [ELF3], for which the protein stability index by setting is: (treatment: DMSO) 2.33 ± 0.3; (treatment: MLN4924 1 uM, 8 h) 2.16 ± 0.096.
For DIDQMFSTLLGEMDLLTQSLGVDT [APBB1IP], in that order: 3.16 ± 0.5 and 2.76 ± 0.41.
For ALKLFPVQPCSAVHLLLKKVLFAL [FAM189A2], in that order: 2.39 ± 0.17 and 2.35 ± 0.35.

The values above are taken from the supplement of paper PMC10567573.
